According to US20240132626A1 (Eli Lilly, published 2024):

Assays:
Test in all cases: SPR, captured via anti-human kappa, soluble ECD injected
[1] = molecular target: T1, Soluble human HER-2 extracellular domain (ECD) protein (human, UniProt P04626 23-652)
T1 construct: extracellular domain; His-tagged

[2] = molecular target: T2, Soluble human EGFR ECD protein (human, UniProt P00533 25-645)
T2 construct: extracellular domain; His-tagged

[3] = molecular target: T3, Soluble human cMet extracellular domain (ECD) protein (human, UniProt P08581 25-932)
T3 construct: extracellular domain; His-tagged
T3 sequence (P08581 25-932): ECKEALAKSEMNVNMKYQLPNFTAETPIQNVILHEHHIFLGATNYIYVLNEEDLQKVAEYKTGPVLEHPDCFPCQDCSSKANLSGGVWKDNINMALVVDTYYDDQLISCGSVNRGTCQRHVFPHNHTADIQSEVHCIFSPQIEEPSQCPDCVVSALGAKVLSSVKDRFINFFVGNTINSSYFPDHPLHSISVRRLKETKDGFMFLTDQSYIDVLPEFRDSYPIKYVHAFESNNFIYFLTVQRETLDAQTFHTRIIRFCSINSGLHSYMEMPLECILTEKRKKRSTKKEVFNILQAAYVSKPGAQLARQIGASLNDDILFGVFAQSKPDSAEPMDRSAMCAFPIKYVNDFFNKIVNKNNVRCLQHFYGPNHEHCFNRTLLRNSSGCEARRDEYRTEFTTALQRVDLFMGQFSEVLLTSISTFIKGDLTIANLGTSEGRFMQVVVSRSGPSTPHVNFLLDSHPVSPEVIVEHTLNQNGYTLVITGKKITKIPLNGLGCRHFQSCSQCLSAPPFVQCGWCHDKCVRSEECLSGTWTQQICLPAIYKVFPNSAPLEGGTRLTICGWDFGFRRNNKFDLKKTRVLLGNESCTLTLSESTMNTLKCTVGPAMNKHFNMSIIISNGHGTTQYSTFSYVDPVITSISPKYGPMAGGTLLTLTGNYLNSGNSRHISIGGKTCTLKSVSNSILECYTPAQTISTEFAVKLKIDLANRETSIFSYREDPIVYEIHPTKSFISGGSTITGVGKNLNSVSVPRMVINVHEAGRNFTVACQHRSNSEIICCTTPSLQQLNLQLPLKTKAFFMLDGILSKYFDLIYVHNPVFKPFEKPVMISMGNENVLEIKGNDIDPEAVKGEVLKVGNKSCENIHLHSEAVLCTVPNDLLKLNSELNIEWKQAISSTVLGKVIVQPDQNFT

Row | Binder | Kd [1] [nM] | koff [1] [s⁻¹] | kon [1] [M⁻¹ s⁻¹] | Kd [2] [nM] | koff [2] [s⁻¹] | kon [2] [M⁻¹ s⁻¹] | Kd [3] [nM] | koff [3] [s⁻¹] | kon [3] [M⁻¹ s⁻¹]
1 | HER-2 X EGFR X cMet TsAb_C_HL (other, Trispecific IgG-Fab antibody with Fabs from pertuzumab, matuzumab and MetMAb; the anti-cMet Fab is dually tethered at the C-terminus of the heterodimeric Fc) heavy 1: EVQLVESGGGLVQPGGSLRLSCAASGFTFTDYTMDWVRKAPGKGLEWVADVNPNSGGSIYNQEFKGRFTLSVDRSKNTLYLQMNSLRAEDTAVYYCARNLGPSFYFDYWGQGTLVTVSSASTKGPSVFPLAPSSKSTSGGTAALGCLVKDYFPEPVTVSWNSGALTSGVATGPAVLQSSGLYSLSSVVTVPSSSLGTQTYICNVNHKPSNTKVDKKVEPKSCDKTHTCPPCPAPEAAGGPSVFLFPPKPKDTLMISRTPEVTCVVVDVSHEDPEVKFNWYVDGVEVHNAKTKPREQYQSTYRVVSVLTVLHQDWLNGKEYKCKVSNKALPAPIEKTISKAKGQPREPQVSTLPPSREEMTKNQVSLMCLVYGFYPSDIAVEWESNGQPENNYKTTPPVLDSDGSFFLYSVLTVDKSRWQQGNVFSCSVMHEALHNHYTQKSLSLSPGKGGGGSGGGGSGGGGSGGGGSEVQLVESGGGLVQPGGSLRLSCAASGYTFTSYWLHWVRQAPGKGLEWVGMIDPSNSDTRFNPNFKDRFTISADTSKNTAYLQMNSLRAEDTAVYYCATYRSYVTPLDYWGRGTLVTVSSASTKGPSVFPLAPSSKSTSGGTAALGCLVADYFPEPVTVSWNSGALTSGVHTFPAVLQSSGLYSLSSVVTVPSSSLGTQTYICNVNHKPSNTKVDERVEPKSC light 1: RIQMTQSPSSLSASVGDRVTITCKASQDVSIGVAWYQDKPGKAPKLLIYSASYRYTGVPSRFSGSGSGTDFTLTISSLQPEDFATYYCQQYYIYPYTFGQGTKVEIKGQPKAAPSVTLFPPSSEELQANKATLVCYISDFYPGAVTVAWKADSSPVKAGVETTTPSKQSNNKYAAWSYLSLTPEQWKSHRSYSCQVTHEGSTVEKTVAPTEC heavy 2: QVQLVQSGAEVKKPGASVKVSCKASGYTFTSHWMHWVRYAPGQGLEWIGEFNPSNGRTNYNEKFKSKATMTVDTSTNTAYMELSSLRSEDTAVYYCASRDYDYDGRYFDYWGQGTLVTVSSASTKGPSVFPLAPCSKSTSGGTAALGCLVKDYFPEPVTVSWNSGALTSGVHTFPAVLQSSGLYSLSSVVTVPSSSLGTQTYICNVNHKPSNTKVDKKVEPDSGDKTHTCPPCPAPEAAGGPSVFLFPPKPKDTLMISRTPEVTCVVVDVSHEDPEVKFNWYVDGVEVHNAKTKPREEQYQSTYRVVSVLTVLHQDWLNGKEYKCKVSNKALPAPIEKTISKAKGQPREPQVYTLPPSRGDMTKNQVQLTCLVKGFYPSDIAVEWESNGQPENNYKTTPPVLDSDGSFFLASKLTVDKSRWQQGNVFSCSVMHEALHNHYTQKSLSLSPGKGGGGSGGGGSGGGGSGGGGSDIQMTQSPSSLSASVGDRVTITCKSSQSLLYTSSQKNYLAWYQQKPGDAPKLLIYWASTRESGVPSRFSGSGSGTDFTLTISSLQPEDFATYYCQQYYAYPWTFGQGTKVEIKRTVAAPSVFIFPPSDKQLKSGTARVVCLLNNFYPREAKVQWKVDNALQSGNSQESVTEQDSKDSTYSLISTLTLSKADYEKHKVYACEVTHQGLSSPVTKSFNRGEC light 2: DIQMTQSPSSLSASVGDRVTITCSASSSVTYMYWYQRKPGKAPKLLIYDTSNLASGVPSRFSGSGSGTDYTFTISSLQPEDIATYYCQQWSSHIFTFGQGTKVEIKRTVAAPSVFIFPPSKEQLKSGTASVVCLLNNFYPREAKVQWKVDNALQSGNSQESVTEQDSKDSTYSLSSTLTLSKADYEKHKVYACEVTHQGLSSPVTKSFNRGEC | 1.2 | 0.00027 | 230000 | 10 | 0.0085 | 850000 | 74 | 0.00025 | 3400
2 | HER-2 X EGFR X cMet TsAb_N_H (other, Trispecific IgG-Fab antibody; the anti-cMet Fab is fused N-terminally through its heavy chain fragment) heavy 1: EVQLVESGGGLVQPGGSLRLSCAASGYTFTSYWLHWVRQAPGKGLEWVGMIDPSNSDTRFNPNFKDRFTISADTSKNTAYLQMNSLRAEDTAVYYCATYRSYVTPLDYWGRGTLVTVSSASTKGPSVFPLAPSSKSTSGGTAALGCLVADYFPEPVTVSWNSGALTSGVHTFPAVLQSSGLYSLSSVVTVPSSSLGTQTYICNVNHKPSNTKVDERVEPKSCGGGGSGGGGSGGGGSGGGGSGGGGSQVQLVQSGAEVKKPGASVKVSCKASGYTFTSHWMHWVRYAPGQGLEWIGEFNPSNGRTNYNEKFKSKATMTVDTSTNTAYMELSSLRSEDTAVYYCASRDYDYDGRYFDYWGQGTLVTVSSASTKGPSVFPLAPCSKSTSGGTAALGCLVKDYFPEPVTVSWNSGALTSGVHTFPAVLQSSGLYSLSSVVTVPSSSLGTQTYICNVNHKPSNTKVDKKVEPDSGDKTHTCPPCPAPEAAGGPSVFLFPPKPKDTLMISRTPEVTCVVVDVSHEDPEVKFNWYVDGVEVHNAKTKPREEQYQSTYRVVSVLTVLHQDWLNGKEYKCKVSNKALPAPIEKTISKAKGQPREPQVYTLPPSRGDMTKNQVQLTCLVKGFYPSDIAVEWESNGQPENNYKTTPPVLDSDGSFFLASKLTVDKSRWQQGNVFSCSVMHEALHNHYTQKSLSLSPG light 1: DIQMTQSPSSLSASVGDRVTITCSASSSVTYMYWYQRKPGKAPKLLIYDTSNLASGVPSRFSGSGSGTDYTFTISSLQPEDIATYYCQQWSSHIFTFGQGTKVEIKRTVAAPSVFIFPPSKEQLKSGTASVVCLLNNFYPREAKVQWKVDNALQSGNSQESVTEQDSKDSTYSLSSTLTLSKADYEKHKVYACEVTHQGLSSPVTKSFNRGEC heavy 2: EVQLVESGGGLVQPGGSLRLSCAASGFTFTDYTMDWVRKAPGKGLEWVADVNPNSGGSIYNQEFKGRFTLSVDRSKNTLYLQMNSLRAEDTAVYYCARNLGPSFYFDYWGQGTLVTVSSASTKGPSVFPLAPSSKSTSGGTAALGCLVKDYFPEPVTVSWNSGALTSGVATGPAVLQSSGLYSLSSVVTVPSSSLGTQTYICNVNHKPSNTKVDKKVEPKSCDKTHTCPPCPAPEAAGGPSVFLFPPKPKDTLMISRTPEVTCVVVDVSHEDPEVKFNWYVDGVEVHNAKTKPREEQYQSTYRVVSVLTVLHQDWLNGKEYKCKVSNKALPAPIEKTISKAKGQPREPQVSTLPPSREEMTKNQVSLMCLVYGFYPSDIAVEWESNGQPENNYKTTPPVLDSDGSFFLYSVLTVDKSRWQQGNVFSCSVMHEALHNHYTQKSLSLSPG light 2: RIQMTQSPSSLSASVGDRVTITCKASQDVSIGVAWYQDKPGKAPKLLIYSASYRYTGVPSRFSGSGSGTDFTLTISSLQPEDFATYYCQQYYIYPYTFGQGTKVEIKGQPKAAPSVTLFPPSSEELQANKATLVCYISDFYPGAVTVAWKADSSPVKAGVETTTPSKQSNNKYAAWSYLSLTPEQWKSHRSYSCQVTHEGSTVEKTVAPTEC light 3: DIQMTQSPSSLSASVGDRVTITCKSSQSLLYTSSQKNYLAWYQQKPGDAPKLLIYWASTRESGVPSRFSGSGSGTDFTLTISSLQPEDFATYYCQQYYAYPWTFGQGTKVEIKRTVAAPSVFIFPPSDKQLKSGTARVVCLLNNFYPREAKVQWKVDNALQSGNSQESVTEQDSKDSTYSLISTLTLSKADYEKHKVYACEVTHQGLSSPVTKSFNRGEC | 1.1 | 0.00026 | 230000 | 13 | 0.0085 | 680000 | 0.31 | 0.00016 | 520000
3 | HER-2 X EGFR X cMet TsAb_C_L (other, Trispecific IgG-Fab antibody; the anti-cMet Fab is tethered through its light chain only at the C-terminus of HC2) heavy 1: EVQLVESGGGLVQPGGSLRLSCAASGFTFTDYTMDWVRKAPGKGLEWVADVNPNSGGSIYNQEFKGRFTLSVDRSKNTLYLQMNSLRAEDTAVYYCARNLGPSFYFDYWGQGTLVTVSSASTKGPSVFPLAPSSKSTSGGTAALGCLVKDYFPEPVTVSWNSGALTSGVATGPAVLQSSGLYSLSSVVTVPSSSLGTQTYICNVNHKPSNTKVDKKVEPKSCDKTHTCPPCPAPEAAGGPSVFLFPPKPKDTLMISRTPEVTCVVVDVSHEDPEVKFNWYVDGVEVHNAKTKPREEQYQSTYRVVSVLTVLHQDWLNGKEYKCKVSNKALPAPIEKTISKAKGQPREPQVSTLPPSREEMTKNQVSLMCLVYGFYPSDIAVEWESNGQPENNYKTTPPVLDSDGSFFLYSVLTVDKSRWQQGNVFSCSVMHEALHNHYTQKSLSLSPG light 1: RIQMTQSPSSLSASVGDRVTITCKASQDVSIGVAWYQDKPGKAPKLLIYSASYRYTGVPSRFSGSGSGTDFTLTISSLQPEDFATYYCQQYYIYPYTFGQGTKVEIKGQPKAAPSVTLFPPSSEELQANKATLVCYISDFYPGAVTVAWKADSSPVKAGVETTTPSKQSNNKYAAWSYLSLTPEQWKSHRSYSCQVTHEGSTVEKTVAPTEC EVQLVESGGGLVQPGGSLRLSCAASGYTFTSYWLHWVRQAPGKGLEWVGMIDPSNSDTRFNPNFKDRFTISADTSKNTAYLQMNSLRAEDTAVYYCATYRSYVTPLDYWGRGTLVTVSSASTKGPSVFPLAPSSKSTSGGTAALGCLVADYFPEPVTVSWNSGALTSGVHTFPAVLQSSGLYSLSSVVTVPSSSLGTQTYICNVNHKPSNTKVDERVEPKSC heavy 2: QVQLVQSGAEVKKPGASVKVSCKASGYTFTSHWMHWVRYAPGQGLEWIGEFNPSNGRTNYNEKFKSKATMTVDTSTNTAYMELSSLRSEDTAVYYCASRDYDYDGRYFDYWGQGTLVTVSSASTKGPSVFPLAPCSKSTSGGTAALGCLVKDYFPEPVTVSWNSGALTSGVHTFPAVLQSSGLYSLSSVVTVPSSSLGTQTYICNVNHKPSNTKVDKKVEPDSGDKTHTCPPCPAPEAAGGPSVFLFPPKPKDTLMISRTPEVTCVVVDVSHEDPEVKFNWYVDGVEVHNAKTKPREEQYQSTYRVVSVLTVLHQDWLNGKEYKCKVSNKALPAPIEKTISKAKGQPREPQVYTLPPSRGDMTKNQVQLTCLVKGFYPSDIAVEWESNGQPENNYKTTPPVLDSDGSFFLASKLTVDKSRWQQGNVFSCSVMHEALHNHYTQKSLSLSPGKGGGGSGGGGSGGGGSGGGGSDIQMTQSPSSLSASVGDRVTITCKSSQSLLYTSSQKNYLAWYQQKPGDAPKLLIYWASTRESGVPSRFSGSGSGTDFTLTISSLQPEDFATYYCQQYYAYPWTFGQGTKVEIKRTVAAPSVFIFPPSDKQLKSGTARVVCLLNNFYPREAKVQWKVDNALQSGNSQESVTEQDSKDSTYSLISTLTLSKADYEKHKVYACEVTHQGLSSPVTKSFNRGEC light 2: DIQMTQSPSSLSASVGDRVTITCSASSSVTYMYWYQRKPGKAPKLLIYDTSNLASGVPSRFSGSGSGTDYTFTISSLQPEDIATYYCQQWSSHIFTFGQGTKVEIKRTVAAPSVFIFPPSKEQLKSGTASVVCLLNNFYPREAKVQWKVDNALQSGNSQESVTEQDSKDSTYSLSSTLTLSKADYEKHKVYACEVTHQGLSSPVTKSFNRGEC | 0.8 | 0.00039 | 520000 | 4.5 | 0.0086 | 1.9e+06 | 0.69 | 0.00025 | 360000
4 | Matuzumab (antibody, V domains shown) VH: QVQLVQSGAEVKKPGASVKVSCKASGYTFTSHWMHWVRQAPGQGLEWIGEFNPSNGRTNYNEKFKSKATMTVDTSTNTAYMELSSLRSEDTAVYYCASRDYDYDGRYFDYWGQGTLVTVSS VL: DIQMTQSPSSLSASVGDRVTITCSASSSVTYMYWYQQKPGKAPKLLIYDTSNLASGVPSRFSGSGSGTDYTFTISSLQPEDIATYYCQQWSSHIFTFGQGTKVEIKG | – | – | – | 13 | 0.0083 | 650000 | – | – | –
